According to publication PMC4673829, “Chemical basis for the recognition of trimethyllysine by epigenetic reader proteins” (Nature Communications, 2015):
Ends that are not written are not given here. Me3 = trimethyllysine (Kme3)

What was measured:
Details in all cases: both partners purified
JMJD2A tudor domains = target: T1, JMJD2A tudor domains; assay: ITC; 350–600 μM H3K4me3 or H3C4me3 peptide titrated to 25–40 μM protein (JMJD2A–H3C4me3: 3 mM peptide to 200 μM JMJD2A); 19 injections; Microcal Auto-iTC200; one set of sites model; 5–7 repeats
T1 construct: JMJD2A (KDM4A), tudor domains; source: E. coli Rosetta BL21 DE3 pLysS, purified (Ni-NTA, TEV protease, Superdex 75)
T1 sequence (O75164 whole entry, species assumed, looked up): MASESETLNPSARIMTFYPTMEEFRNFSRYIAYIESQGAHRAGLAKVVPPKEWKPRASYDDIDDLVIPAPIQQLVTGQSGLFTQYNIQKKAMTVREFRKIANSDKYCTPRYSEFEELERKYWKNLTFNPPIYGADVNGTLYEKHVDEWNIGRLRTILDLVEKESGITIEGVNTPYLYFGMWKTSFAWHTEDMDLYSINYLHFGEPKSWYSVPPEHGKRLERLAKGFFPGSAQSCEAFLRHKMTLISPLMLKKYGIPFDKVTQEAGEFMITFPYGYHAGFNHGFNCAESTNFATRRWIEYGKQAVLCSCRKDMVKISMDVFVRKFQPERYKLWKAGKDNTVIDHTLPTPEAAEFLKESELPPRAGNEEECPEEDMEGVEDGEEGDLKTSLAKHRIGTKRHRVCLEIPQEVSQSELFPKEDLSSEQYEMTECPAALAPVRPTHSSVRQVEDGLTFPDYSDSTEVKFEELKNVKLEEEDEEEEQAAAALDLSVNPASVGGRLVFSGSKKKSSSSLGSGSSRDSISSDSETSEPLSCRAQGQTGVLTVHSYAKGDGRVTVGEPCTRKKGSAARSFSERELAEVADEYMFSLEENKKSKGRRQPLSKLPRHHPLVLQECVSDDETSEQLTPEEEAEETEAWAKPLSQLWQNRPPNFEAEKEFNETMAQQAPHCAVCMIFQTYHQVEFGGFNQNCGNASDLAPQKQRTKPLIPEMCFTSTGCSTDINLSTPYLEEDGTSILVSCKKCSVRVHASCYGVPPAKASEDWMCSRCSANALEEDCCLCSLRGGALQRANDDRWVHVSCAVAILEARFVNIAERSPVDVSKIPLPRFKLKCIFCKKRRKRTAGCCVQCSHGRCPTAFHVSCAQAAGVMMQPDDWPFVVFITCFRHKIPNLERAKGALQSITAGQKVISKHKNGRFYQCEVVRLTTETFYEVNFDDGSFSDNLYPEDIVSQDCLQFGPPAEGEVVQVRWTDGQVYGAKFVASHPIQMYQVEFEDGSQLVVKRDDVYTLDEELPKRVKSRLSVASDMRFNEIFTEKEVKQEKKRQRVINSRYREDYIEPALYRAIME

[1] = target: T2, TAF3 PHD domain (for ITC); assay: as above
T2 chain: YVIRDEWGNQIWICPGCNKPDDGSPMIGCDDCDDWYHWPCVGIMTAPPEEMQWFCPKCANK

BPTF PHD zinc finger = target: T3, BPTF PHD zinc finger; assay: as above
T3 chain: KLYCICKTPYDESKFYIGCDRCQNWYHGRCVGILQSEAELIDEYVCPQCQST

[2] = target: T4, JARID1A PHD3 domain (for ITC); assay: as above
T4 construct: JARID1A (KDM5A), PHD3 domain; cleavage of the tag is told only for JMJD2A, SGF29 and TAF3; also called PHD zinc finger of JARID1A; source: E. coli Rosetta BL21 DE3 pLysS, purified (Ni-NTA or glutathione sepharose beads, Superdex 75)

[3] = target: T5, SGF29 tandem tudor domain (for ITC); assay: as above
T5 construct: SGF29, tandem tudor domain; the crystallisation construct is residues 115-293 of human SGF29; source: E. coli Rosetta BL21 DE3 pLysS, purified (Ni-NTA, TEV protease, Superdex 75)

[4] = target: T2, TAF3 PHD domain (for ITC); assay: ITC; H3G4 (5 mM) titrated to JARID1A (330 μM), H3G4 (3 mM) titrated to TAF3 (200 μM); 19 injections; Microcal Auto-iTC200; one set of sites model

T5 sequence (Q96ES7 whole entry, the tested form may be a part): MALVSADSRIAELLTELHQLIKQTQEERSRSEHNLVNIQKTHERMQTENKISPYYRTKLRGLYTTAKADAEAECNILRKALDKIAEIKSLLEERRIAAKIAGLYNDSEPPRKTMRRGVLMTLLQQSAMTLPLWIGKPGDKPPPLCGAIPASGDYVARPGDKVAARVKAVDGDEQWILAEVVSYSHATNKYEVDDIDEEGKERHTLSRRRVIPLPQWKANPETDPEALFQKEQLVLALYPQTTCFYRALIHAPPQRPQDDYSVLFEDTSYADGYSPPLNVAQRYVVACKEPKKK

B1: 10-mer H3C4me3 histone peptide (peptide)
chain: ARTXQTARKS
modifications: Cme3 (neutral carba analogue of trimethyllysine, tert-butyl in place of trimethylammonium) at position 4; carboxylic acid at the C terminus
With B1 the Kd (JMJD2A tudor domains) was 16 µM, the dH (JMJD2A tudor domains) was -8.1 ± 0.1 kcal/mol and the Kd [1] was 790 nM. The dH [1] was -5.2 ± 0.1 kcal/mol, the Kd (BPTF PHD zinc finger) was 760 nM and the dH (BPTF PHD zinc finger) was -10 ± 0.2 kcal/mol. It also gave a Kd [2] of 340 nM, a dH [2] of -7.4 ± 0.1 kcal/mol and a Kd [3] of 1400 nM. For the same binder, the dH [3] was -7.9 ± 0.1 kcal/mol.

B2: 10-mer H3G4 histone peptide (peptide)
peptide: ARTGQTARKS-OH
notes: source: synthetic peptide (solid-phase synthesis, Fmoc chemistry, preparative HPLC)
B2 was tested, and the Kd [4] was 36 µM and the dH [4] was -2.5 kcal/mol.

B3: 10-mer H3K4me3 histone peptide (peptide)
peptide: ARTK(Me3)QTARKS-OH
notes: histone H3, residues 1-10, with Kme3 at the fourth position; Peptides appear as TFA salts; also called H3(1-10)K4me3; source: synthetic peptide (solid-phase synthesis, Fmoc chemistry, preparative HPLC)
B3 gave a Kd [1] of 24 nM, a dH [1] of -10.9 ± 0.1 kcal/mol and a Kd (BPTF PHD zinc finger) of 490 nM. For the same binder, the dH (BPTF PHD zinc finger) was -13.1 ± 0.1 kcal/mol.
